For orientation: IC50 means the midpoint of a concentration-inhibition curve. A low value points to higher potency.

Data on 10 molecules can be found in patent US7951595B2, “Methods for screening modulators of SLC17-type anion transport activity” (National University Corporation Okayama University, priority 2007, dated 2011).

One test deals with T1, human SLC17A9 (Homo sapiens, UniProt Q9BYT1, N228S).
T1 construct: His6 (from pDEST10 vector); made in house; host or cells: insect cells, baculovirus system (Sf9 named for virus production)
T1 sequence (Q9BYT1 1-430 isoform Q9BYT1-2 N222S): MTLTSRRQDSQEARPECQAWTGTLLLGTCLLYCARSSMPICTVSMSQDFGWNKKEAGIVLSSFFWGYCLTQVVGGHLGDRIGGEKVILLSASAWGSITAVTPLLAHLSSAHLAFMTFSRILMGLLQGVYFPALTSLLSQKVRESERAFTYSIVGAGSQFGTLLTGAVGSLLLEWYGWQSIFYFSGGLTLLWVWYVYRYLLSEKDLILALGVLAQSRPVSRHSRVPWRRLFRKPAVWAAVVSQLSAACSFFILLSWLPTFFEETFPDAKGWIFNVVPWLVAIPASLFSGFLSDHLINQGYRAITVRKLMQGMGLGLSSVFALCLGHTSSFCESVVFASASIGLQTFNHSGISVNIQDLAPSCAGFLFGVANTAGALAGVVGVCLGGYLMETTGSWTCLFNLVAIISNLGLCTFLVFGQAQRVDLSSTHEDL
The test can be described thus: Nucleotide transport by human SLC17A9 reconstituted proteoliposomes (valinomycin-induced membrane potential, radiolabelled substrate). The format is biochemical. How it is done: (§1) 10 μg of purified SLC17A9 and 0.5 mg of soybean-derived lipids were mixed and incubated at −80° C. for 5 minutes or more. The mixture was thawed quickly by holding the tube in the hands, and was diluted 60-fold with a buffer solution containing 20 mM MOPS-Tris (pH 7.0), 0.15M sodium acetate, 2 mM magnesium acetate and 0.5 mM DTT. This dilution was centrifuged at 200,000×g at 4° C. for one hour, the supernatant was discarded, and the precipitate was resuspended in a buffer solution containing 20 mM MOPS-Tris (pH 7.0), 0.15M sodium acetate, 2 mM magnesium acetate and 0.5 mM DTT, to obtain SLC17A9 reconstituted proteoliposomes. As a control, liposomes without SLC17A9 were used.
The nucleotide transport activity was measured by the following procedure. The reconstituted proteoliposomes were incubated in a buffer solution containing 20 mM MOPS-Tris (pH 7.0), 0.15M potassium acetate, 2 mM magnesium acetate and 4 mM potassium chloride, at 27° C. for 2 minutes, and valinomycin was added thereto to a final concentration of 2 μM. The mixture was incubated for further 2 minutes. The point of addition of 0.1 mM [α-^32P]ATP (3.7 GBq/mmol) was defined as the initiation of activity measurement. At a predetermined time point, 130 μL of the reaction liquid was recovered and centrifuged through a Sephadex G-50 (fine) spin column at 760×g for 2 minutes. The uptake of ATP was measured by measuring the radioactivity included in the reaction liquid that had passed through the column using a liquid scintillation counter. In the measurement of the transport activity for ADP and GTP, [2,8-^3H]ADP (0.37 GBq/mmol) and [α-^32P]GTP (3.7 GBq/mmol) were used instead of ATP as the substrate.
In an experiment for an inhibitor, a predetermined concentration of an inhibitor was added upon incubation of the proteoliposomes.

Test [1] deals with SLC17 family transporter proteins. The test can be described thus: ATP uptake by other SLC17 family proteins reconstituted like SLC17A9. It counts as biochemical. The following applies: 0.1 mM [α-32P]ATP, uptake after 2 minutes, relative to SLC17A9 protein. How it is done:
as §1
The nucleotide transport activity was measured by the following procedure. The reconstituted proteoliposomes were incubated in a buffer solution containing 20 mM MOPS-Tris (pH 7.0), 0.15M potassium acetate, 2 mM magnesium acetate and 4 mM potassium chloride, at 27° C. for 2 minutes, and valinomycin was added thereto to a final concentration of 2 μM. The mixture was incubated for further 2 minutes. […] At a predetermined time point, 130 μL of the reaction liquid was recovered and centrifuged through a Sephadex G-50 (fine) spin column at 760×g for 2 minutes.
Each of the transporter proteins that belong to the SLC17 family was purified in the same manner as in the case of SLC17A9, and was reconstituted according to the technique of Example 11.

`Cc1cc(-c2ccc(/N=N/c3ccc4c(S(=O)(=O)O)cc(S(=O)(=O)O)c(N)c4c3O)c(C)c2)ccc1/N=N/c1ccc2c(S(=O)(=O)O)cc(S(=O)(=O)O)c(N)c2c1O` [Evans Blue]: at human SLC17A9 (SLC17A9 reconstituted proteoliposomes, FIG. 17B), the IC50 turned out to be 40 nM.
Regarding `CC(C)[C@@H]1NC(=O)[C@H](C)OC(=O)[C@@H](C(C)C)NC(=O)[C@@H](C(C)C)OC(=O)[C@H](C(C)C)NC(=O)[C@H](C)OC(=O)[C@@H](C(C)C)NC(=O)[C@@H](C(C)C)OC(=O)[C@H](C(C)C)NC(=O)[C@H](C)OC(=O)[C@@H](C(C)C)NC(=O)[C@@H](C(C)C)OC1=O` [valinomycin], the “effect on uptake of radioactive ATP” value on human SLC17A9 (ATP 100 μM, valinomycin 2 μM, FIG. 13(B)) is “activated”.
For the molecule `C=C1[C@@H]2CC[C@H]3[C@]4(C)C[C@H](O[C@@H]5O[C@H](CO)[C@@H](OS(=O)(=O)O)[C@H](OS(=O)(=O)O)[C@H]5OC(=O)CC(C)C)C[C@@H](C(=O)O)[C@H]4CC[C@]3(C2)[C@H]1O` [atractyloside], the “effect of addition on the ATP uptake” value on human SLC17A9 (atractyloside 200 μM, with or without Mg2+, FIG. 17(C)) is “Only when Mg^2+ was present, the ATP uptake was inhibited”.
Regarding `Cl` [chloride ions], the “chloride ion concentration at which ATP uptake activity reached a steady state” value on human SLC17A9 (chloride ions at various concentrations, FIG. 14) is 4 mM.

B1: VGLUT3: SLC17 family transporter protein, gene SLC17A8 (protein, UniProt Q8NDX2 1-589, looked up)
Vesicular glutamate …: MPFKAFDTFKEKILKPGKEGVKNAVGDSLGILQRKIDGTTEEEDNIELNEEGRPVQTSRPSPPLCDCHCCGLPKRYIIAIMSGLGFCISFGIRCNLGVAIVEMVNNSTVYVDGKPEIQTAQFNWDPETVGLIHGSFFWGYIMTQIPGGFISNKFAANRVFGAAIFLTSTLNMFIPSAARVHYGCVMCVRILQGLVEGVTYPACHGMWSKWAPPLERSRLATTSFCGSYAGAVVAMPLAGVLVQYIGWSSVFYIYGMFGIIWYMFWLLQAYECPAAHPTISNEEKTYIETSIGEGANVVSLSKFSTPWKRFFTSLPVYAIIVANFCRSWTFYLLLISQPAYFEEVFGFAISKVGLLSAVPHMVMTIVVPIGGQLADYLRSRQILTTTAVRKIMNCGGFGMEATLLLVVGFSHTKGVAISFLVLAVGFSGFAISGFNVNHLDIAPRYASILMGISNGVGTLSGMVCPLIVGAMTRHKTREEWQNVFLIAALVHYSGVIFYGVFASGEKQEWADPENLSEEKCGIIDQDELAEEIELNHESFASPKKKMSYGATSQNCEVQKKEWKGQRGATLDEEELTSYQNEERNFSTIS
As for B1, in test [1], the “ATP Transport (%)” value is reported as 7.1 ± 2.1%.

B2: Sialin: SLC17 family transporter protein, gene SLC17A5 (protein, UniProt Q9NRA2 1-495, looked up)
Sialin: MRSPVRDLARNDGEESTDRTPLLPGAPRAEAAPVCCSARYNLAILAFFGFFIVYALRVNLSVALVDMVDSNTTLEDNRTSKACPEHSAPIKVHHNQTGKKYQWDAETQGWILGSFFYGYIITQIPGGYVASKIGGKMLLGFGILGTAVLTLFTPIAADLGVGPLIVLRALEGLGEGVTFPAMHAMWSSWAPPLERSKLLSISYAGAQLGTVISLPLSGIICYYMNWTYVFYFFGTIGIFWFLLWIWLVSDTPQKHKRISHYEKEYILSSLRNQLSSQKSVPWVPILKSLPLWAIVVAHFSYNWTFYTLLTLLPTYMKEILRFNVQENGFLSSLPYLGSWLCMILSGQAADNLRAKWNFSTLCVRRIFSLIGMIGPAVFLVAAGFIGCDYSLAVAFLTISTTLGGFCSSGFSINHLDIAPSYAGILLGITNTFATIPGMVGPVIAKSLTPDNTVGEWQTVFYIAAAINVFGAIFFTLFAKGEVQNWALNDHHGHRH
Consider B2, for which, in test [1], the “ATP Transport (%)” value stood at 2.1 ± 0.8%.

B3: VGLUT1: SLC17 family transporter protein, gene SLC17A7 (protein, UniProt Q9P2U7 1-560, looked up)
Vesicular glutamate …: MEFRQEEFRKLAGRALGKLHRLLEKRQEGAETLELSADGRPVTTQTRDPPVVDCTCFGLPRRYIIAIMSGLGFCISFGIRCNLGVAIVSMVNNSTTHRGGHVVVQKAQFSWDPETVGLIHGSFFWGYIVTQIPGGFICQKFAANRVFGFAIVATSTLNMLIPSAARVHYGCVIFVRILQGLVEGVTYPACHGIWSKWAPPLERSRLATTAFCGSYAGAVVAMPLAGVLVQYSGWSSVFYVYGSFGIFWYLFWLLVSYESPALHPSISEEERKYIEDAIGESAKLMNPLTKFSTPWRRFFTSMPVYAIIVANFCRSWTFYLLLISQPAYFEEVFGFEISKVGLVSALPHLVMTIIVPIGGQIADFLRSRRIMSTTNVRKLMNCGGFGMEATLLLVVGYSHSKGVAISFLVLAVGFSGFAISGFNVNHLDIAPRYASILMGISNGVGTLSGMVCPIIVGAMTKHKTREEWQYVFLIASLVHYGGVIFYGVFASGEKQPWAEPEEMSEEKCGFVGHDQLAGSDDSEMEDEAEPPGAPPAPPPSYGATHSTFQPPRPPPPVRDY
As to B3, the “ATP Transport (%)” value in test [1] stood at 1.7 ± 0.7%.

B4: SLC17A9 protein: purified SLC17A9 membrane protein, vesicular nucleotide transporter (protein, UniProt Q9BYT1 1-436, looked up)
Voltage-gated purine …: MQPPPDEARRDMAGDTQWSRPECQAWTGTLLLGTCLLYCARSSMPICTVSMSQDFGWNKKEAGIVLSSFFWGYCLTQVVGGHLGDRIGGEKVILLSASAWGSITAVTPLLAHLSSAHLAFMTFSRILMGLLQGVYFPALTSLLSQKVRESERAFTYSIVGAGSQFGTLLTGAVGSLLLEWYGWQSIFYFSGGLTLLWVWYVYRYLLSEKDLILALGVLAQSRPVSRHNRVPWRRLFRKPAVWAAVVSQLSAACSFFILLSWLPTFFEETFPDAKGWIFNVVPWLVAIPASLFSGFLSDHLINQGYRAITVRKLMQGMGLGLSSVFALCLGHTSSFCESVVFASASIGLQTFNHSGISVNIQDLAPSCAGFLFGVANTAGALAGVVGVCLGGYLMETTGSWTCLFNLVAIISNLGLCTFLVFGQAQRVDLSSTHEDL
Regarding B4, in test [1], the “ATP Transport (%)” value was found to be 100.0%.

B5: NPT1: SLC17 family transporter protein, gene SLC17A1 (protein, UniProt Q14916 1-467, looked up)
Sodium-dependent phosphate …: MQMDNRLPPKKVPGFCSFRYGLSFLVHCCNVIITAQRACLNLTMVVMVNSTDPHGLPNTSTKKLLDNIKNPMYNWSPDIQGIILSSTSYGVIIIQVPVGYFSGIYSTKKMIGFALCLSSVLSLLIPPAAGIGVAWVVVCRAVQGAAQGIVATAQFEIYVKWAPPLERGRLTSMSTSGFLLGPFIVLLVTGVICESLGWPMVFYIFGACGCAVCLLWFVLFYDDPKDHPCISISEKEYITSSLVQQVSSSRQSLPIKAILKSLPVWAISTGSFTFFWSHNIMTLYTPMFINSMLHVNIKENGFLSSLPYLFAWICGNLAGQLSDFFLTRNILSVIAVRKLFTAAGFLLPAIFGVCLPYLSSTFYSIVIFLILAGATGSFCLGGVFINGLDIAPRYFGFIKACSTLTGMIGGLIASTLTGLILKQDPESAWFKTFILMAAINVTGLIFYLIVATAEIQDWAKEKQHTRL
Turning to B5, the “ATP Transport (%)” value in test [1] amounted to 2.0 ± 1.1%.

B6: VGLUT2: SLC17 family transporter protein, gene SLC17A6 (protein, UniProt Q9P2U8 1-582, looked up)
Vesicular glutamate …: MESVKQRILAPGKEGLKNFAGKSLGQIYRVLEKKQDTGETIELTEDGKPLEVPERKAPLCDCTCFGLPRRYIIAIMSGLGFCISFGIRCNLGVAIVDMVNNSTIHRGGKVIKEKAKFNWDPETVGMIHGSFFWGYIITQIPGGYIASRLAANRVFGAAILLTSTLNMLIPSAARVHYGCVIFVRILQGLVEGVTYPACHGIWSKWAPPLERSRLATTSFCGSYAGAVIAMPLAGILVQYTGWSSVFYVYGSFGMVWYMFWLLVSYESPAKHPTITDEERRYIEESIGESANLLGAMEKFKTPWRKFFTSMPVYAIIVANFCRSWTFYLLLISQPAYFEEVFGFEISKVGMLSAVPHLVMTIIVPIGGQIADFLRSKQILSTTTVRKIMNCGGFGMEATLLLVVGYSHTRGVAISFLVLAVGFSGFAISGFNVNHLDIAPRYASILMGISNGVGTLSGMVCPIIVGAMTKNKSREEWQYVFLIAALVHYGGVIFYAIFASGEKQPWADPEETSEEKCGFIHEDELDEETGDITQNYINYGTTKSYGATTQANGGWPSGWEKKEEFVQGEVQDSHSYKDRVDYS
In the case of B6, the “ATP Transport (%)” value in test [1] came out at 0.1 ± 0.2%.
